Source: paper PMC5924885 (Proceedings of the National Academy of Sciences of the …, 2018)

Target: Akt1 kinase domain (Akt1^KD) (human, UniProt P31749 144-472, exclusively monophosphorylated, predominantly in the turn motif (T450))
Assay: fluorescence polarisation

Chain of Akt1 kinase domain (Akt1^KD) (P31749 144-472): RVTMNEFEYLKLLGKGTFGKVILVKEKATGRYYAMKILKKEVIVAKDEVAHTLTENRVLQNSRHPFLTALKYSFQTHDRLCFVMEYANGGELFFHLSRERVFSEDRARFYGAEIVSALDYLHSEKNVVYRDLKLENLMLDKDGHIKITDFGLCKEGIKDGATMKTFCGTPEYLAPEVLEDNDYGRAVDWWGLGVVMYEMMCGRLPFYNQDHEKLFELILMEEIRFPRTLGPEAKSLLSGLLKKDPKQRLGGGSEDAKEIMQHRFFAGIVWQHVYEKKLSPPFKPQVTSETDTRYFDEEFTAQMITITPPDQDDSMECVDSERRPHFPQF

B1: Atto488-labeled Akt1 PH domain (Akt1^1-120 T101C) (domain or fragment, human, UniProt P31749 1-120, looked up)
chain: MSDVAIVKEGWLHKRGEYIKTWRPRYFLLKNDGTFIGYKERPQDVDQREAPLNNFSVAQCQLMKTERPRPNTFIIRCLQWTTVIERTFHVETPEEREEWTCAIQTVADGLKKQEEEEMDF
modifications: Atto488 (maleimide) label, about 50% labeling efficiency
B1 was tested, and the Kd was 7 µM.
